# Source: patent US20240002541A1 (Johns Hopkins, published 2024)
# T1: CD19 (UniProt P15391 20-291, limits assumed)
# T1 construct: The antigen construct is not described
# T1 sequence (looked up): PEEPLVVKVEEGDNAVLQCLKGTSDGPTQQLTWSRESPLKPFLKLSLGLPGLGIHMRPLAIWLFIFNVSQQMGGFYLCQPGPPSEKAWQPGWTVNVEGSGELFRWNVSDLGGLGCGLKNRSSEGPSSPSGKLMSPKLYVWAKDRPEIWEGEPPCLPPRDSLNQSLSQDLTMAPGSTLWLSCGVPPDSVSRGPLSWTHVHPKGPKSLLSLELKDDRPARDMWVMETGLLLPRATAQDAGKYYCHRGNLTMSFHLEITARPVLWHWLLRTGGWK
# T2: TRBV5-5 (UniProt A0A597 22-114, limits assumed)
# T2 construct: The antigen construct is not described; also called T cell receptor β chain variable 5-5
# T2 sequence (TCR beta, looked up): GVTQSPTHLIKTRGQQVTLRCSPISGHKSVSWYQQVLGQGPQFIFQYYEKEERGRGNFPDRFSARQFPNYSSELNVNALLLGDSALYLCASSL
# T3: TRBV5-5 on human T cells and HPB-ALL cells (human, UniProt A0A597 22-114)
# T3 sequence (TCR beta, looked up): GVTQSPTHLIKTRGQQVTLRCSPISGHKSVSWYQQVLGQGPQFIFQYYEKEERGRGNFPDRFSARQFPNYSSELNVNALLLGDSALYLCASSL
# T4: TRBV12-3 on Jurkat cells (human, UniProt P01733 22-115)
# T4 sequence (TCR beta, looked up): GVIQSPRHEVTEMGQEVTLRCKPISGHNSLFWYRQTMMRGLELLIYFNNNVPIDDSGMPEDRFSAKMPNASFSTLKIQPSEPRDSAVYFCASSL
# T5: TRBV12
# T5 chain: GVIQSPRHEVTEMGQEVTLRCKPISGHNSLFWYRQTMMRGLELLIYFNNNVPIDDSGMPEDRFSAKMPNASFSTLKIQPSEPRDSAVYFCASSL
# B1: α-CD19 scFv (clone HD37) (scFv, V domains shown)
# VH: QVQLQQSGAELVRPGSSVKISCKASGYAFSSYWMNWVKQRPGQGLEWIGQIWPGDGDTNYNGKFKGKATLTADESSSTAYMQLSSLASEDSAVYFCARRETTTVGRYYYAMDYWGQGTTVTVSS
# VL: DIQLTQSPASLAVSLGQRATISCKASQSVDYDGDSYLNWYQQIPGQPPKLLIYDASNLVSGIPPRFSGSGSGTDFTLNIHPVEKVDAATYHCQQSTEDPWTFGGGTKLEIK
# notes: also called anti-CD19 scFv
# B2: α-TRBV5-5 scFv (clone TM23) (scFv, V domains shown)
# VH: QVQLKESGPGLVAPSQSLSITCTVSGFSLTAYGVNWVRQPPGKGLEWLGMIWGDGNTDYNSALKSRLSISKDNSKSQVFLKMNSLQTDDTARYYCARDRVTATLYAMDYWGQGTSVTVSS
# VL: DIQMTQTTSSLSASLGDRVTITCSASQGISNYLNWYQQKPDGTVKLLIYYTSSLHSGVPSRFSGSGSGTDYSLTISNLEPEDIATYYCQQYSKLPRTFGGGTKVEIK
# notes: also called anti-TRBV5-5 scFv
# B3: anti-TRBV5-5 BsAb (α-V5) (bispecific antibody)
# chain: DIQMTQTTSSLSASLGDRVTITCSASQGISNYLNWYQQKPDGTVKLLIYYTSSLHSGVPSRFSGSGSGTDYSLTISNLEPEDIATYYCQQYSKLPRTFGGGTKVEIKGGGGSEVQLVESGGGLVQPGGSLRLSCAASGYSFTGYTMNWVRQAPGKGLEWVALINPYKGVSTYNQKFKDRFTISVDKSKNTAYLQMNSLRAEDTAVYYCARSGYYGDSDWYFDVWGQGTLVTVSSGGGGSGGGGSGGGGSDIQMTQSPSSLSASVGDRVTITCRASQDIRNYLNWYQQKPGKAPKLLIYYTSRLESGVPSRFSGSGSGTDYTLTISSLQPEDFATYYCQQGNTLPWTFGQGTKVEIKGGGGSQVQLKESGPGLVAPSQSLSITCTVSGFSLTAYGVNWVRQPPGKGLEWLGMIWGDGNTDYNSALKSRLSISKDNSKSQVFLKMNSLQTDDTARYYCARDRVTATLYAMDYWGQGTSVTVSSHHHHHH
# B4: α-TRBC1 scFv (clone Jovi-1) (scFv, V domains shown)
# VH: EVRLQQSGPDLIKPGASVKMSCKASGYTFTGYVMHWVKQRPGQGLEWIGFINPYNDDIQSNERFRGKATLTSDKSSTTAYMELSSLTSEDSAVYYCARGAGYNFDGAYRFFDFWGQGTTLTVSS
# VL: DVVMTQSPLSLPVSLGDQASISCRSSQRLVHSNGNTYLHWYLQKPGQSPKLLIYRVSNRFPGVPDRFSGSGSGTDFTLKISRVEAEDLGIYFCSQSTHVPYTFGGGTKLEIKR
# notes: also called anti-TRBC1 scFv
# B5: anti-TRBV12 BsAb (α-V12) (bispecific antibody)
# chain: ENVLTQSPAIMSASLGEKVTMSCRASSSVNYIYWYQQKSDASPKLWIYYTSNLAPGVPTRFSGSGSGNSYSLTISSMEGEDAATYYCQQFTSSPFTFGQGTKLEIKGGGGSEVQLVESGGGLVQPGGSLRLSCAASGYSFTGYTMNWVRQAPGKGLEWVALINPYKGVSTYNQKFKDRFTISVDKSKNTAYLQMNSLRAEDTAVYYCARSGYYGDSDWYFDVWGQGTLVTVSSGGGGSGGGGSGGGGSDIQMTQSPSSLSASVGDRVTITCRASQDIRNYLNWYQQKPGKAPKLLIYYTSRLESGVPSRFSGSGSGTDYTLTISSLQPEDFATYYCQQGNTLPWTFGQGTKVEIKGGGGSDVQLVESGGGLVQPGGSRKLSCAASGFTFSNFGMHWVRQAPDKGLEWVAYISSGSSTIYYADTLKGRFTISRDNPKNTLFLQMTSLRSEDTAMYYCARRGEGAMDYWGQGTSVTVSSHHHHHH
# B6: α-CD3 scFv (clone UCHT1.v9) (scFv, V domains shown)
# VH: EVQLVESGGGLVQPGGSLRLSCAASGYSFTGYTMNWVRQAPGKGLEWVALINPYKGVSTYNQKFKDRFTISVDKSKNTAYLQMNSLRAEDTAVYYCARSGYYGDSDWYFDVWGQGTLVTVSS
# VL: DIQMTQSPSSLSASVGDRVTITCRASQDIRNYLNWYQQKPGKAPKLLIYYTSRLESGVPSRFSGSGSGTDYTLTISSLQPEDFATYYCQQGNTLPWTFGQGTKVEIK
# notes: also called anti-CD3 scFv
# B7: α-TRBV12 scFv (clone 16G8) (scFv, V domains shown)
# VH: DVQLVESGGGLVQPGGSRKLSCAASGFTFSNFGMHWVRQAPDKGLEWVAYISSGSSTIYYADTLKGRFTISRDNPKNTLFLQMTSLRSEDTAMYYCARRGEGAMDYWGQGTSVTVSS
# VL: ENVLTQSPAIMSASLGEKVTMSCRASSSVNYIYWYQQKSDASPKLWIYYTSNLAPGVPTRFSGSGSGNSYSLTISSMEGEDAATYYCQQFTSSPFTFGQGTKLEIK
# notes: also called anti-TRBV12 scFv
# Key:
# CD19 = target: T1, CD19; experiment: not stated (column 'Affinity' of Table 1)
# TRBV5-5 = target: T2, TRBV5-5; experiment: not stated (column 'Affinity' of Table 1)
# [1] = target: T3, TRBV5-5 on human T cells and HPB-ALL …; experiment: cell-based or functional assay
# [2] = target: T3, TRBV5-5 on human T cells and HPB-ALL …; experiment: cell-based or functional assay; remark: listed apart in the source
# TRBC1 = target: T6, TRBC1 (UniProt P01850 1-130, limits assumed); experiment: not stated (column 'Affinity' of Table 1)
# T6 construct: The antigen construct is not described; also called T cell receptor β chain constant 1; Cβ1 TCR
# TRBV12-3 on Jurkat cells [3] = target: T4, TRBV12-3 on Jurkat cells; experiment: cell-based or functional assay
# TRBV12-3 on Jurkat cells [4] = target: T4, TRBV12-3 on Jurkat cells; experiment: cell-based or functional assay; remark: listed apart in the source
# CD3 = target: T7, CD3 (UniProt P07766 23-126); experiment: not stated (column 'Affinity' of Table 1)
# T7 construct: The antigen construct is not described; also called cluster of differentiation 3; CD3ε subunit
# TRBV12 = target: T5, TRBV12; experiment: not stated (column 'Affinity' of Table 1)
# T7 sequence (P07766 23-126): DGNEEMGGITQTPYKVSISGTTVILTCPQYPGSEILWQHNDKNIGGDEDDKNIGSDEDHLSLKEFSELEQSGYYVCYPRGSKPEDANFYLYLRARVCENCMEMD
# T6 sequence (P01850 1-130 limits assumed): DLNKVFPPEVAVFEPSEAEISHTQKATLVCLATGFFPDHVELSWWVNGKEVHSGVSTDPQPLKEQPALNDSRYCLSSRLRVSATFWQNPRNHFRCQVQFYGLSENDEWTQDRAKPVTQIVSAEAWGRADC
binder,measurement,setting,value
B1,Kd,CD19,300 pM
B2,Kd,TRBV5-5,25200 pM
B3,"EC50 of GM-CSF release (Luminex), HPB-ALL WT + T cells, 17 hours",[1],42.3 pM
same,"EC50 of IFNγ release (Luminex), HPB-ALL WT + T cells, 17 hours",[1],31.1 pM
same,"EC50 of IL2 release (Luminex), HPB-ALL WT + T cells, 17 hours",[1],94.5 pM
same,"EC50 of IL5 release (Luminex), HPB-ALL WT + T cells, 17 hours",[1],54.4 pM
same,"EC50 of TNFα release (Luminex), HPB-ALL WT + T cells, 17 hours",[1],166 pM
same,"EC50 of the loss of HPB-ALL viability (luminescence), 5x10^4 HPB-ALL cells with 5x10^4 normal human T cells, 17 hours",[2],2.09 pM
B4,Kd,TRBC1,400 pM
B5,"EC50 of GM-CSF release (Luminex), Jurkat WT + T cells, 17 hours",TRBV12-3 on Jurkat cells [3],12.1 pM
same,"EC50 of IFNγ release (Luminex), Jurkat WT + T cells, 17 hours",TRBV12-3 on Jurkat cells [3],23.5 pM
same,"EC50 of IL2 release (Luminex), Jurkat WT + T cells, 17 hours",TRBV12-3 on Jurkat cells [3],20.5 pM
same,"EC50 of IL5 release (Luminex), Jurkat WT + T cells, 17 hours",TRBV12-3 on Jurkat cells [3],12.4 pM
same,"EC50 of TNFα release (Luminex), Jurkat WT + T cells, 17 hours",TRBV12-3 on Jurkat cells [3],13.8 pM
same,"EC50 of the loss of Jurkat viability (luminescence), 5x10^4 Jurkat cells with 5x10^4 normal human T cells, 17 hours",TRBV12-3 on Jurkat cells [4],0.78 pM
B6,Kd,CD3,4700 pM
B7,Kd,TRBV12,2600 pM
